Measurements from US20220332804A1 (CSL INNOVATION, published 2022).

Experiments:
Experiment in all cases: SPR, antibody captured, C2 as analyte;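 note: biacore at 37 °C, anti-C2 mAbs held by immobilised goat anti-human IgG, C2 alanine or serine mutants injected, double-referenced sensorgrams fitted to a 1:1 kinetic or steady-state model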
[1] = biological target: T1, human C2 A326S (human, UniProt P06681 21-752)
T1 sequence: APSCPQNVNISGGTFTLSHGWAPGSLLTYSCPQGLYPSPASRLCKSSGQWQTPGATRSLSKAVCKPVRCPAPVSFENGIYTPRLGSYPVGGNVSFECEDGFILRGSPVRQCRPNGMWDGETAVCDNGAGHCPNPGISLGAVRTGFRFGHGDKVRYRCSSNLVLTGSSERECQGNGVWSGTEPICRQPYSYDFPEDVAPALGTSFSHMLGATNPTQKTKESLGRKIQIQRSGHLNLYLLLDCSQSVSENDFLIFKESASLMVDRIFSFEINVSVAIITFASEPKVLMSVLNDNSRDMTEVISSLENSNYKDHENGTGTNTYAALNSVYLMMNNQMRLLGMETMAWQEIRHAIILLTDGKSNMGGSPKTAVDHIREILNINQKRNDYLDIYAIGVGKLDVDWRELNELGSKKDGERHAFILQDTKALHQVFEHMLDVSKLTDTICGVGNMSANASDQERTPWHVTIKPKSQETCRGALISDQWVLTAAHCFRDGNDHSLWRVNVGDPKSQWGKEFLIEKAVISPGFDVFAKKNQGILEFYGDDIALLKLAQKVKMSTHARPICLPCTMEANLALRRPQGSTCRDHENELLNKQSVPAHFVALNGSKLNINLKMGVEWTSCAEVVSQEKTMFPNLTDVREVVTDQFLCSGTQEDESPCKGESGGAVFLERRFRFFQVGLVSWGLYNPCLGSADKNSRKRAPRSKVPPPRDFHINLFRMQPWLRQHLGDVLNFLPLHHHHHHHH

[2] = biological target: T2, human C2 S278A (human, UniProt P06681 21-752)
T2 sequence: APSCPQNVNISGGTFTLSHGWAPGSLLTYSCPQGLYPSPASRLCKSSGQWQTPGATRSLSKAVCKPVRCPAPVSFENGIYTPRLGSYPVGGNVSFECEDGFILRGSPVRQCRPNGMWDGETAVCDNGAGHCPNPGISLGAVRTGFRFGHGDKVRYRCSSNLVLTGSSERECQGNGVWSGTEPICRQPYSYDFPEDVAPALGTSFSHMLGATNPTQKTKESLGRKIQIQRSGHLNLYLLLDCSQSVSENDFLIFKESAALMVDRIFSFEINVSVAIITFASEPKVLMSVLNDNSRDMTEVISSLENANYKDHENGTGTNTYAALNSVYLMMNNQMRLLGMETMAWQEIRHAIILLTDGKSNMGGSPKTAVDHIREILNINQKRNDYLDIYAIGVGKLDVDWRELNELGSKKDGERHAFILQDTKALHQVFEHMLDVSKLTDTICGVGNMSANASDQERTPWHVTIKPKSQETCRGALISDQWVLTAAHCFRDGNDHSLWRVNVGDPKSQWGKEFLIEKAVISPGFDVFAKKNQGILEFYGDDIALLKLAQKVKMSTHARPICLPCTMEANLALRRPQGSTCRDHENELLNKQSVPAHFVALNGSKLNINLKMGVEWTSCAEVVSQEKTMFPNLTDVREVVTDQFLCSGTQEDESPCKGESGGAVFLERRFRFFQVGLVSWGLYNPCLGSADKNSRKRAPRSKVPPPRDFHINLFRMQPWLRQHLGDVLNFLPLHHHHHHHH

[3] = biological target: T3, human C2 N268A (human, UniProt P06681 21-752)
T3 sequence: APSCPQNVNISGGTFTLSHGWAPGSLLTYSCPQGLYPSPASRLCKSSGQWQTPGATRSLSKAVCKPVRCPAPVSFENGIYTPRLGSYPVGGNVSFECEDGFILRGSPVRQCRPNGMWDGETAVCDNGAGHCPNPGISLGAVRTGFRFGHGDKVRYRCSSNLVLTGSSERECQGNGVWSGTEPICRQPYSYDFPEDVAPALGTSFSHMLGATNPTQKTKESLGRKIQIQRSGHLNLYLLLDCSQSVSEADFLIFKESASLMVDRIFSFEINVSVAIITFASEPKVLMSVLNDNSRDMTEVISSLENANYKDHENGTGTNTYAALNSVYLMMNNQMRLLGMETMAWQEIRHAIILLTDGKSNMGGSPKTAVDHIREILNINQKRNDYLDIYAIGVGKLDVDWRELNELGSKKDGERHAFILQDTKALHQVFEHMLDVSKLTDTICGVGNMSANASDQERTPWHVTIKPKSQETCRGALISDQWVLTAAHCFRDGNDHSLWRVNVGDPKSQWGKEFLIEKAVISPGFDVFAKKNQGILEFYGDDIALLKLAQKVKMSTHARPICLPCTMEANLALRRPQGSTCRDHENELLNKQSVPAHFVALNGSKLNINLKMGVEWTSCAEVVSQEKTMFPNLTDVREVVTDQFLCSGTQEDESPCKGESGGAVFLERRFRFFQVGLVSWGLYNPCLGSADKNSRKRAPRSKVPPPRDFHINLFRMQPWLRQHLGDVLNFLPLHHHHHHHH

[4] = biological target: T4, human C2 A472S (human, UniProt P06681 21-752)
T4 sequence: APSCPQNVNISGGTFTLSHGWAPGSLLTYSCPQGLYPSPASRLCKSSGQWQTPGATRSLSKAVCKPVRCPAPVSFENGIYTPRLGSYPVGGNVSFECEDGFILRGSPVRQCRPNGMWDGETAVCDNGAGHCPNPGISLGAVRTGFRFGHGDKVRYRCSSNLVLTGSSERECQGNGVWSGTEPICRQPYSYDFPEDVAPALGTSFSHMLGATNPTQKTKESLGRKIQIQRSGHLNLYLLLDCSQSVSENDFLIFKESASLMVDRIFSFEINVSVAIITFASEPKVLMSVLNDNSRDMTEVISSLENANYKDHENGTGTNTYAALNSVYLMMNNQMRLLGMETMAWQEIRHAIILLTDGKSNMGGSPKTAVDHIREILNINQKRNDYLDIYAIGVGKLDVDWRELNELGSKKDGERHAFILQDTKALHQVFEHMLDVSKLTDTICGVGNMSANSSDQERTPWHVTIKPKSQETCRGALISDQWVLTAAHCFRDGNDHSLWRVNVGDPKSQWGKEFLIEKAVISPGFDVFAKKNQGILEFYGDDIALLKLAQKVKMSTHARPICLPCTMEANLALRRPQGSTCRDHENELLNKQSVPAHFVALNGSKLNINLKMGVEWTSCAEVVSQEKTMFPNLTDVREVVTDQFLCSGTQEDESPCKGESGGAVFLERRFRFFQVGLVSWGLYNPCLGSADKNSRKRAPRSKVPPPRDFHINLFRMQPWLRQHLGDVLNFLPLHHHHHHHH

B1: RF16-242 (antibody, human IgG4 S228P, lambda, V domains shown)
VH: EVQLLQSGAEVKKPGESLKISCKGSGYSFTSYWIGWVRQMPGKGLEWMGIIYPGDSDTRYSPSFQGQVTISADKSISTAYLQWSSLKASDTAMYYCARRGHYGDYFDYWGQGTLVTVSS
VL: SYELTQPPSVSVSPGQTARITCSGDALPKKYAYWYHQKSGQAPVLVIYEDRRRPSEIPERFSGSSSGTMATLTITGAQVEDEGVYFCYSRDRAGNQRVFGGGTQLTVLG
notes: pH-dependent anti-C2 antibody from a phage display library
[1]
  Kd: 9.9 nM
[2]
  Kd: 6.5 nM
[3]
  Kd: 14.8 nM
[4]
  Kd: 51.1 nM
